Source: patent publication US20240327477A1, “COMPOSITIONS AND METHODS FOR THE TREATMENT OF TDP-43 PROTEINOPATHIES” (SOLA BIOSCIENCES LLC, priority 2020, published 2024)
“Also recorded” adds a separate entry of the source. Where a SMILES comes first, the peptide text is derived from it. The star is where a group is joined. Cbz = O=C(OCc1ccccc1)*

Columns and labels:
GFP-TDP43CTF [1] = target: T1, GFP-TDP43CTF (Homo sapiens, UniProt Q13148); test: Fluorescence microscopy of GFP-TDP43CTF aggregation (GFP foci) in transfected HEK293 cells; assay type: cell-based; conditions: for aggregation of GFP-TDP43CTF reporter in cells (in words): HEK293 cells, vs reporter alone; for reduction of TDP-43 aggregation: GFP-TDP43CTF reporter, vs reporter alone (FIG. 8/9, Table 12)
T1 construct: expressed in transfected cells; host or cells: HEK293
Procedure: (§1) Expression vector plasmids encoding various protein constructs were transfected into HEK293 cells with Lipofectamine 3000 transfection reagent (Thermo Fisher Scientific). Cell lysates were analyzed for expressed proteins using immunoblot assays. Samples of culture media were centrifuged to remove debris prior to analysis. Cells were lysed in a lysis buffer (10 mM Tris-HCl, pH 8.0, 150 mM NaCl, 10 mM EDTA, 2% SDS) containing 2 mM PMSF and protease cocktail (Complete Protease Inhibitor Cocktail; Sigma). After brief sonication, the samples were analyzed for expressed proteins using immunoblot assays. For immunoblot analysis, samples were boiled in an SDS-sample buffer and run on polyacrylamide electrophoresis. Thereafter, the separated protein bands were transferred to a PVDF membrane.
(§2) In some instances, aggregation of TDP-43 (full-length of C-terminal fragment) GFP reporter constructs (described below) were detected in vivo using fluorescence microscopy. Cultured cells expressing the reporter constructs as well as the fusion protein comprising the J domain and TDP-43-binding domain were washed with PBS and fixed with 4% paraformaldehyde in PBS for 5 minutes. After three 5-min washes with PBS, nuclear DNA was stained with DAPI. Percentage of cells containing TDP-43 (GFP foci) in transfected cells was counted.
We first investigated whether the fusion molecule of the present invention targeting TDP-43 ameliorates its aggregation in cultured cells. To this end, we generated GFP-based reporter constructs GFP-TDP43 and GFP-TDP43, wherein GFP was fused at its C-terminus to either the full-length human TDP-43 protein or the C-terminal fragment TDP-43 which is known to form cytoplasmic aggregation and cytotoxicity (See Table 8 below). HEK293 cells were cultured and transfected with the plasmids encoding the full-length TDP43 or the C-terminal fragment of TDP43, containing the C-terminal 207 amino acids TDP-43 (amino acids 208-414 of human TDP-43) as a GFP fusion [GFP-TDP43FL (SEQ ID NO: 101) or GFP-TDP43CTF (SEQ ID NO: 102)].

GFP-TDP43FL [2] = target: T2, GFP-TDP43FL (Homo sapiens, UniProt Q13148); test: Fluorescence microscopy of GFP-TDP43FL aggregation (GFP foci) in transfected HEK293 cells; assay type: cell-based; conditions: vs negative controls and construct 2 (FIG. 7)
T2 construct: expressed in transfected cells; host or cells: HEK293
Procedure: as §1
as §2, with “counted. […]” for “counted.”

GFP-TDP43CTF [3] = test: Bafilomycin A1 or MG132 treatment of cells co-expressing reporter and Construct 3, immunoblot; assay type: cell-based, human; conditions: immunoblot (FIG. 10)
Excerpt: Cells were transfected either with the reporter construct GFP-TDP43FL (lane 2) or GFP-TDP43CTF (lanes 3-8), and co-transfected with nucleic acids encoding Construct 3 (lanes 4-8).
We next investigated the mechanism of the fusion protein in reducing aggregation. HEK293 cells were transfected with the GFP-TDP43FL or GFP-TDP43CTF reporter construct, either alone or with Construct 3 (JB1-scFv (3B12A)), as well as with BFA (Bafilomycin A1, an inhibitor of the late phase of autophagy) or MG132 (proteasome inhibitor).

GFP-TDP43CTF [4] = target: T1, GFP-TDP43CTF; test: Immunoblot (anti-GFP) of reporter level in cell extracts; assay type: cell-based; conditions: vs negative control
Procedure: as §1
(§3) Expressed proteins were detected using a chemiluminescent signal. Briefly, blots were reacted with a primary antibody capable of binding the particular epitope (e.g., GFP). After rinsing away the unreacted primary antibody, a secondary, enzyme-linked antibody (e.g., HRP-linked anti-lgG antibody) was allowed to react with the primary antibody molecules bound to the blots. Following rinsing, a chemiluminescent reagent was added, and the resultant chemiluminescent signals in the blots were captured on X-ray film.

GFP-TDP43FL [5] = target: T2, GFP-TDP43FL; test: as above; assay type: cell-based; conditions: cell extracts (FIG. 5)
Procedure: as §1, §3

[6] = assay type: in vivo, mouse; conditions: C57BL/6J mice, AAV rh10 vector encoding Construct 3 vs control, three weeks after ICV or IT injection; data not shown
human TDP-43ΔNLS = target: T3, human TDP-43ΔNLS (Homo sapiens, UniProt Q13148, K82A/K84A/R83A); test: Efficacy in rNLS8 (NEFH-tTA x hTDP-43ΔNLS) mouse model of ALS, ICV AAV rh10; assay type: in vivo; conditions: rNLS8 mice (Dox −)
T3 construct: expressed in transfected cells; host or cells: transgene in NEFH-tTA x hTDP-43ΔNLS bigenic mice (rNLS mice), in vivo
Procedure: Vectors prepared above were tested on TDP-43-asociated pathologies of a novel AAV NEFH-tTA×hTDP-43ΔNLS bigenic mice (rNLS mice). This model has a doxycycline (DOX)-repressible construct expressing pathogenic TDP-43 (human TDP-43ΔNLS). Upon removal of DOX, TDP-43ΔNLS expression causes a rapid and progressive deterioration of the animals, causing severe weight loss and, generally within 6-8 weeks, death. We tested the efficacy of Construct 3 (JB1-scFv (3B12A), SEQ ID NO: 80) in slowing the progression of TDP-43ΔNLS-mediated pathology. AAV rh10 containing control or Construct 3 were administered ICV unilaterally at P1/P2 at a volume of 2 ul (maximum 4 ul) in different groups as shown below in Table 17. Except for the control group 1, DOX removal occurred at week 5. Control mice in group
Body weight was measured twice weekly after weaning. After completion of testing, samples were collected from all surviving mice. Whole brains were collected and split into 2 hemispheres. One hemisphere were weighed and frozen on dry ice. The second hemisphere were post fixed in 4% PFA for histology assessments.

GFP-TDP43CTF [7] = target: T1, GFP-TDP43CTF; test: Fractionation assay: soluble and insoluble fractions, immunoblot; assay type: cell-based; conditions: GFP-TDP43CTF reporter, HEK293 cells
Procedure: Transfected HEK293 cells are homogenized in RIPA buffer (50 mM Tris, pH7.5, 150 mM NaCl, 0.1% NP-40, 0.5% sodium deoxycholate, 0.1% SDS) supplemented with protease inhibitor cocktail, 2 mM PMSF, 10 mM NaF, and 2 mM Na3VO4. After brief sonication, protein concentration is measured by BCA assay kit (Pierce). The equal protein amount is spun down by centrifugation at 16,000×g for 30 minutes at 4° C. to fractionate into soluble fraction (supernatant) and insoluble fraction (pellet). The insoluble fraction is further solubilized in SDS lysis buffer (10 mM Tris, pH8.0, 150 mM NaCl, 2% SDS). Both soluble and insoluble fractions were applied to SDS-PAGE under reducing condition, followed by immunoblotting assay with anti-GFP antibody.

Compound: Construct 5: Reversed arrangement of J domain and TDP-43 from Construct 3
- aggregation of GFP-TDP43CTF reporter in cells (in words) (GFP-TDP43CTF [1]): dramatically reduced
- aggregation level in cells expressing GFP-TDP43FL reporter (in words) (GFP-TDP43FL [2]): modest reduction

Compound: CC(C)C[C@@H](C=O)NC(=O)[C@H](CC(C)C)NC(=O)[C@H](CC(C)C)NC(=O)OCc1ccccc1 [MG132] (Cbz-Leu-Leu-Leu-aldehyde)
- level of GFP-TDP43CTF reporter in cells co-expressing Construct 3 after MG132 treatment (GFP-TDP43CTF [3]; MG132 0.1 μM or 1.0 μM): little to no effect

Compound: Construct 9: Full-length J protein control [reference compound]
- reduction of TDP-43 aggregation (GFP-TDP43CTF [1]): ~43%
- amount of GFP-TDP43CTF reporter protein, anti-GFP immunoblot (in words) (GFP-TDP43CTF [4]): lower levels

Compound: Construct 14: J domain from DnaJB1 fused to two tandem copies of QBP1
- reduction of TDP-43 aggregation (GFP-TDP43CTF [1]): ~71%
- amount of GFP-TDP43CTF reporter protein, anti-GFP immunoblot (in words) (GFP-TDP43CTF [4]): lower levels

Compound: Construct 3: DnaJB1 J domain fused to scFv(3B12A)
- reduction of TDP-43 aggregation (GFP-TDP43CTF [1]): > 90%
- aggregation of GFP-TDP43CTF reporter in cells (in words) (GFP-TDP43CTF [1]): substantially reduced aggregation
- aggregation of GFP-TDP43CTF reporter in cells (in words) (GFP-TDP43CTF [1]; listed as construct 3): dramatically reduced
- aggregation level in cells expressing GFP-TDP43FL reporter (in words) (GFP-TDP43FL [2]): modest reduction
- amount of GFP-TDP43CTF reporter protein, anti-GFP immunoblot (in words) (GFP-TDP43CTF [4]): lower levels
- amount of GFP-TDP43CTF reporter protein, anti-GFP immunoblot (in words) (GFP-TDP43CTF [4]; listed as construct 3): marked reduction
- levels of the full-length reporter construct (GFP-TDP43FL), anti-GFP immunoblot (in words) (GFP-TDP43FL [5]): No differences
- body weight [6]: No difference in body weight
- survival at week 10 (human TDP-43ΔNLS; AAV rh10 6 × 10^10 vg ICV at P1, DOX removal at week 5 (FIG. 16C)): 100%
- body weight compared with Group 2 (AAV control, DOX off) (human TDP-43ΔNLS; males, AAV rh10 6 × 10^10 vg ICV at P1, DOX removal at week 5 (FIG. 16B)): statistically significant weight increase

Compound: CO/C1=C\C(C)=C\[C@@H](C)[C@@H](O)[C@@H](C)C/C(C)=C/C=C/[C@H](OC)[C@@H]([C@@H](C)[C@@H](O)[C@H](C)[C@@]2(O)C[C@@H](O)[C@H](C)[C@@H](C(C)C)O2)OC1=O [BFA, Bafilomycin A1]
- level of GFP-TDP43CTF reporter in cells co-expressing Construct 3 after BFA treatment (GFP-TDP43CTF [3]; BFA 0.01 μM (10 nM) or 0.1 μM (100 nM)): higher levels; also recorded: reappearance of pathogenic TDP43 in a dose dependent manner

Compound: Construct 4: Same as construct 3, with a P33Q mutation in the conserved HPD motif
- aggregation of GFP-TDP43CTF reporter in cells (in words) (GFP-TDP43CTF [1]): did not reduce aggregation
- levels of the full-length reporter construct (GFP-TDP43FL), anti-GFP immunoblot (in words) (GFP-TDP43FL [5]): No differences

Compound: Construct 20: Construct 3 containing the dimerization domain from human DnaJA1
- ability to reduce aggregation of GFP-TDP43CTF (in words, with Table 15) (GFP-TDP43CTF [7]): potent reduction
